The source of these data is patent US20110319338A1, “PEPTIDES THAT BIND EUKARYOTIC TRANSLATION INITIATION FACTOR 4E” (The Board of Regents of the University of Texas System, priority 2008, published 2011).

Test [1] concerns the target T1, eIF4E in SKOV3+GnRH-RI cells (Homo sapiens, UniProt P06730).
T1 construct: endogenous in cells; host or cells: SKOV3 cells stably transfected with human GnRH-RI (eIF4E itself is not transfected)
As to the kind of experiment: Pull-down of peptide from lysates of peptide-treated cells, Western blot with eIF4E antibody. Type of test: cell-based. The following applies: 10 micromoles per liter, 24 hours. On the procedure: FIGS. 8A-8D. Effect of [DLys6] GnRH-4EBP1 peptide in SKOV3 cells stably expressing GnRH-RI. (FIG. 8A) Western blot analysis of GnRH-RI in parental SKOV3 cells and SKOV3 cells transfected with GnRH-RI. In (FIG. 8B), SKOV3+GnRH-RI cells were treated with biotinylated peptides at a final concentration of 10 micromoles per liter or incubated without peptide. At 24 hours after treatment, lysates were prepared from cells. Peptide was pulled-down using streptavidin-agarose. Precipitates and supernatants were analyzed by Western blot using eIF4E antibody. (FIG. 8C) parental SKOV3, SKOV3+GnRH-RI and ES-2 cells were treated with the indicated peptides (10 micromoles per liter) or incubated without peptide. At 24 hours after treatment, lysates were prepared from cells. Immunoprecipitation was performed using eIF4E antibody, and Western blot of precipitates was performed using eIF4G antibody. Western blot of whole cell lysates of treated cells was performed using antibodies to eIF4G, eIF4E and actin. (FIG. 8D) TUNEL-staining of parental SKOV3 and SKOV3+GnRH-RI cells at 3 days following treatment with peptide at a final concentration of 30 micromoles per liter.
Immunoprecipitation (IP) and Western blotting. Biotinylated peptides were incubated with 250 micrograms of cell lysate at a final concentration of 3 micromoles per liter for 6 hours at 4° C. […]

Test [2] deals with ES-2-DualLuc cells. Briefly: Cell-based translation assay with bicistronic R-Luc/F-Luc reporter. The following applies: peptide 6 hours, 0.3 to 10 micromoles per liter, relative to cells without peptide. The procedure:
FIGS. 2A-2F. Inhibition of cap-dependent translation and cell growth by TAT-4EBP fusion peptides. (FIG. 2A) Representation of the pIRES-DualLuc bicistronic construct containing Renilla Luciferase (R-Luc) and firefly luciferase (F-Luc) genes. In (FIG. 2B), R-Luc and F-Luc activities were assayed in ES-2-DualLuc cells following treatment for 24 hours with rapamycin and for 3 hours with cycloheximide with the indicated concentrations of these drugs, and expressed relative to the respective luciferase activities in cells incubated without drug. Cell viability was not affected by rapamycin and cycloheximide under these conditions. In (FIG. 2C), R-Luc and F-Luc activities were assayed in ES-2-DualLuc cells following treatment for 6 hours with the indicated concentrations of peptides, and expressed relative to the respective luciferase activities in cells incubated without peptide. Shown are results of triplicate assays performed independently two times, and the statistical significance of differences in relative R-Luc and F-Luc activities in cells treated with peptide at a concentration of 10 micromoles per liter. (FIG. 2D) Viability of OVCAR-3 cells at 3 days after addition of the indicated concentrations of peptides, expressed relative to viability of cells incubated without peptide. Shown are results of triplicate assays performed in two independent experiments, and statistical significances of differences in viability of cells treated with TAT-4EBP1-WT vs. TAT-4EBP1-MT, and of cells treated with TAT-4EBP2-WT vs. TAT-4EBP2-MT at a concentration of 10 micromoles per liter. (FIG. 2E) OVCAR-3 cells at 3 days after peptide addition (10 micromoles per liter) viewed under phase-contrast microscopy. (FIG. 2F) Flow cytometric analysis of staining of terminal deoxynucleotidyl transferase-mediated dUTP nick end labeling (TUNEL) in OVCAR-3 cells at 3 days after peptide addition (10 micromoles per liter). Cells incubated for 3 days in the absence of peptide in medium with and without serum are included as controls.
FIGS. 3A-3H. Uptake, binding and inhibitory effects of [DLys6]GnRH-4EBP fusion peptides. (FIG. 3A) Sequences of [DLys6]GnRH, and wild-type and mutant 4EBP1 peptides fused to the agonist. (FIG. 3B) Western blot of GnRH-RI levels in OVCAR-3, ES-2, MDA-MB-231, BJ, HUVEC and SKOV3 cells. (FIG. 3C) Detection of biotinylated peptides in OVCAR-3 and SKOV3 by Texas Red-conjugated streptavidin at 16 hours after peptide addition (3 micromoles per liter). In (FIGS. 3D and 3E), biotinylated peptides were incubated with OVCAR-3 cell lysate as described in FIG. 1. In (FIG. 3D), peptide was pulled down using streptavidin-agarose. Precipitates (P) and supernatants (S) were analyzed by Western blot using eIF4E antibody. In (FIG. 3E), immunoprecipitation was performed using eIF4E antibody, and Western blot performed using eIF4G antibody. (FIG. 3F) R-Luc and F-Luc activities were assayed in ES-2-DualLuc cells at 6 hours after addition of the indicated concentrations of peptides, and are expressed relative to the respective luciferase activities in cells incubated without peptide. Shown are results of triplicate assays performed independently two times, and the statistical significance of differences in relative R-Luc and F-Luc activities in cells treated with peptide at a concentration of 10 micromoles per liter (FIG. 3G) Cells of GnRH-RI-positive and -negative lines were treated with the indicated concentrations of peptides. Viability at 3 days after peptide addition is expressed relative to viability of cells incubated with no peptide. Shown are results of triplicate assays performed in two independent experiments, and statistical significances of differences in viability of cells treated with wild-type vs. mutant [DLys6]GnRH-4EBP1 peptides at a concentration of 10 micromoles per liter. (FIG. 3H) ES-2 and parental SKOV3 cells at 3 days after peptide addition (30 micromoles per liter) viewed under phase-contrast microscopy. […]

Square brackets hold non-standard residues; d marks the D form. Ends that are not written are not given here.

T1 sequence (P06730 whole entry): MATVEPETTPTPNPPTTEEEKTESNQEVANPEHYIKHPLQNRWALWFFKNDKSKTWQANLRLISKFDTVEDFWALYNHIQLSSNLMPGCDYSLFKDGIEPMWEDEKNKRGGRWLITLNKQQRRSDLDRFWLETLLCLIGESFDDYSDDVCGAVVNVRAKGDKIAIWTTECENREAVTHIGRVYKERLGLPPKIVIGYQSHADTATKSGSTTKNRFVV

Consider “[DLys6]GnRH: GnRH agonist with a D-amino acid substitution at position 6; GnRH-RI-targeting moiety (QHWSY[dK]LRPG; not fully specified (residue 1, C-terminus); ends and bridges not checked)”, for which the “binding of peptide to eIF4E in treated cells” value in test [1] is “neither mutant peptide nor [DLys6]GnRH alone bound eIF4E”. In test [2], the “cap-dependent translation (R-Luc read-out)” value is on record as “not inhibited”.
